Experiments:
[1] = target: CH505 TF chimeric SOSIP.III trimer (CH505TFchim.6R.SOSIP.664V4.1) (HIV-1 (CH505 gp120 / BG505 gp41 chimera)); experiment: negative stain EM; 1 to 1 ratio of CH103 and gp140
[2] = target: CH0505TF.gly3.461 Env, Env-pseudotyped virus produced in 293T cells (HIV-1); experiment: cell-based or functional assay
[3] = target: CH0505TF G458F Env, pseudotyped virus produced in 293S GnTI- cells (HIV-1); experiment: cell-based or functional assay
[4] = target: CH0505TF.gly4.G458Y Env, pseudotyped virus produced in 293S GnTI- cells (HIV-1); experiment: cell-based or functional assay
[5] = target: CH0505TF G458D Env, pseudotyped virus produced in 293S GnTI- cells (HIV-1); experiment: cell-based or functional assay
[6] = target: HIV-1 Env 426c.TM4 (S278R.G471S.N460D.N463D), Env-pseudotyped virus produced in 293T cells (HIV-1 clade C strain 426c); experiment: cell-based or functional assay
[7] = target: CH0505TF G458S Env, pseudotyped virus produced in 293S GnTI- cells (HIV-1); experiment: cell-based or functional assay
[8] = target: CH0505TF G458L Env, pseudotyped virus produced in 293S GnTI- cells (HIV-1); experiment: cell-based or functional assay
[9] = target: CH0505TF.gly3.276 Env, Env-pseudotyped virus produced in 293T cells (HIV-1); experiment: cell-based or functional assay
[10] = target: CH0505TF.gly3.197 Env, pseudotyped virus produced in 293S GnTI- cells (HIV-1); experiment: cell-based or functional assay
[11] = target: CH0505TF G458E Env, pseudotyped virus produced in 293S GnTI- cells (HIV-1); experiment: cell-based or functional assay
[12] = target: CH0505TF G458W Env, pseudotyped virus produced in 293S GnTI- cells (HIV-1); experiment: cell-based or functional assay
[13] = target: CH0505TF Env, pseudotyped virus produced in 293S GnTI- cells (HIV-1); experiment: cell-based or functional assay
[14] = target: CH0505TF.gly3.276 Env, pseudotyped virus produced in 293S GnTI- cells (HIV-1); experiment: cell-based or functional assay
[15] = target: HIV-1 Env 426c.TM4 (S278R.G471S.N460D.N463D), Env-pseudotyped virus produced in 293S GnTI- cells (Man5-enriched) (HIV-1 clade C strain 426c); experiment: cell-based or functional assay
[16] = target: CH0505TF.G458Y Env, pseudotyped virus produced in 293S GnTI- cells (HIV-1); experiment: cell-based or functional assay
[17] = target: HIV-1 Env 426c.TM (N276D.N460D.N463D), Env-pseudotyped virus produced in 293T cells (HIV-1 clade C strain 426c); experiment: cell-based or functional assay
[18] = target: CH0505TF.gly4 Env, Env-pseudotyped virus produced in 293T cells (HIV-1); experiment: cell-based or functional assay
[19] = target: HIV-1 Env 426c, Env-pseudotyped virus produced in 293T cells (HIV-1 clade C strain 426c); experiment: cell-based or functional assay
[20] = target: CH0505.w4.3 Env, Env-pseudotyped virus produced in 293T cells (HIV-1); experiment: cell-based or functional assay
[21] = target: CH0505TF G458C Env, pseudotyped virus produced in 293S GnTI- cells (HIV-1); experiment: cell-based or functional assay
[22] = target: CH0505TF G458K Env, pseudotyped virus produced in 293S GnTI- cells (HIV-1); experiment: cell-based or functional assay
[23] = target: CH0505TF.G458Y Env, Env-pseudotyped virus produced in 293T cells (HIV-1); experiment: cell-based or functional assay
[24] = target: CH0505TF Env, Env-pseudotyped virus produced in 293T cells (HIV-1); experiment: cell-based or functional assay
[25] = target: HIV-1 Env 426c.TM (N276D.N460D.N463D), Env-pseudotyped virus produced in 293S GnTI- cells (Man5-enriched) (HIV-1 clade C strain 426c); experiment: cell-based or functional assay
[26] = target: CH0505TF G458R Env, pseudotyped virus produced in 293S GnTI- cells (HIV-1); experiment: cell-based or functional assay
[27] = target: CH0505TF G458Y.N280D Env, pseudotyped virus produced in 293S GnTI- cells (HIV-1); experiment: cell-based or functional assay
[28] = target: CH0505TF.gly4.G458Y Env, pseudotyped virus produced in 293T cells (HIV-1); experiment: cell-based or functional assay
[29] = target: CH0505.w4.3 Env, pseudotyped virus produced in 293S GnTI- cells (HIV-1); experiment: cell-based or functional assay
[30] = target: CH0505TF.gly3.197 Env, Env-pseudotyped virus produced in 293T cells (HIV-1); experiment: cell-based or functional assay
[31] = target: CH0505TF.gly4 Env, pseudotyped virus produced in 293S GnTI- cells (HIV-1); experiment: cell-based or functional assay
[32] = target: CH0505TF.gly3.461 Env, pseudotyped virus produced in 293S GnTI- cells (HIV-1); experiment: cell-based or functional assay

Substance: CH103 Fab
- Fabs bound per trimer (Fab per trimer) [1]: 3

Substance: CH235 UCA2 (antibody)
- IC50 (µg/ml) in TZM-bl [2]: > 50 µg/mL
- IC50 (µg/ml) in TZM-bl cells [3]: 0.746 µg/mL
- IC50 (µg/ml) in TZM-bl cells [4]: > 10 µg/mL
- IC50 (µg/ml) in TZM-bl cells [5]: > 10 µg/mL
- IC50 (µg/ml) in TZM-bl [6]: > 25 µg/mL
- IC50 (µg/ml) in TZM-bl cells [7]: > 10 µg/mL
- IC50 (µg/ml) in TZM-bl cells [8]: 0.555 µg/mL
- IC50 (µg/ml) in TZM-bl [9]: > 50 µg/mL
- IC50 (µg/ml) in TZM-bl [10]: > 50 µg/mL
- IC50 (µg/ml) in TZM-bl cells [11]: > 10 µg/mL
- IC50 (µg/ml) in TZM-bl cells [12]: 1.07 µg/mL
- IC50 (µg/ml) in TZM-bl [13]: > 50 µg/mL
- IC50 (µg/ml) in TZM-bl [14]: > 50 µg/mL
- IC50 (µg/ml) in TZM-bl [15]: > 25 µg/mL
- IC50 (µg/ml) in TZM-bl [16]: 0.16 µg/mL
- IC50 (µg/ml) in TZM-bl cells [16]: 0.2 µg/mL
- IC50 (µg/ml) in TZM-bl [17]: > 50 µg/mL
- IC50 (µg/ml) in TZM-bl [18]: > 50 µg/mL
- IC50 (µg/ml) in TZM-bl [19]: > 50 µg/mL
- IC50 (µg/ml) in TZM-bl [20]: > 25 µg/mL
- IC50 (µg/ml) in TZM-bl cells [21]: 0.391 µg/mL
- IC50 (µg/ml) in TZM-bl cells [22]: > 10 µg/mL
- IC50 (µg/ml) in TZM-bl [23]: > 25 µg/mL
- IC50 (µg/ml) in TZM-bl [24]: > 50 µg/mL
- IC50 (µg/ml) in TZM-bl [25]: > 50 µg/mL
- IC50 (µg/ml) in TZM-bl cells [26]: 0.916 µg/mL
- IC50 (µg/ml) in TZM-bl cells [27]: > 10 µg/mL
- IC50 (µg/ml) in TZM-bl cells [28]: > 10 µg/mL
- IC50 (µg/ml) in TZM-bl [29]: > 25 µg/mL
- IC50 (µg/ml) in TZM-bl [30]: > 50 µg/mL
- IC50 (µg/ml) in TZM-bl [31]: > 50 µg/mL
- IC50 (µg/ml) in TZM-bl [32]: > 50 µg/mL

— patent publication US20230140293A1
